Read-outs that look alike come from different tables or passages of the source. Values belong to the binder of their own block, whether it stands above or below them. Positions of bridges follow the written chain, without caps; N, C: chain ends. Non-standard residues stand in square brackets, D forms with d. 1Nal = N[C@@H](Cc1cccc2ccccc12)C(=O)O; Nle = CCCC[C@H](N)C(=O)O
Assays:
[1] = biological target: T1, human melanocortin 4 receptor (human, UniProt P32245 1-332); experiment: cell-based or functional assay
[2] = biological target: T1, human melanocortin 4 receptor; experiment: cell-based or functional assay; remark: listed apart in the source
[3] = biological target: T2, MC1-R of B-16 mouse melanoma cells (mouse, UniProt Q01727 1-315); experiment: radioligand competition, [I125]-NDP-α-MSH, B-16 membranes
T2 construct: whole, on cells; also called B16-F10 (MC1-R)

human MC1-R = biological target: T3, human MC1-R (human, UniProt Q01726 1-317); experiment: radioligand competition, NDP-α-MSH, human MC1-R, normal system
T3 construct: whole, on cells; Used in separate experiments for Ki with NDP-α-MSH; the source of the membranes is not described; also called hMC1-R

[4] = biological target: T4, human melanocortin 3 receptor (human, UniProt P41968 1-323); experiment: radioligand competition, [I125]-NDP-α-MSH, hMC3-R membranes
T4 construct: whole, on cells; also called hMC3-R; MC3-R

[5] = biological target: T1, human melanocortin 4 receptor; experiment: radioligand competition, [I125]-NDP-α-MSH, hMC4-R membranes
[6] = biological target: T5, human melanocortin 5 receptor (human, UniProt P33032 1-325); experiment: radioligand competition, [I125]-NDP-α-MSH, hMC5-R membranes
T5 construct: whole, on cells; also called hMC5-R; MC5-R

[7] = biological target: T1, human melanocortin 4 receptor; experiment: cell-based or functional assay; remark: listed apart in the source
[8] = biological target: T2, MC1-R of B-16 mouse melanoma cells; experiment: radioligand competition, [I125]-NDP-α-MSH, B-16 membranes; remark: listed apart in the source
[9] = biological target: T4, human melanocortin 3 receptor; experiment: radioligand competition, [I125]-NDP-α-MSH, hMC3-R membranes; remark: listed apart in the source
[10] = biological target: T1, human melanocortin 4 receptor; experiment: radioligand competition, [I125]-NDP-α-MSH, hMC4-R membranes; remark: listed apart in the source
[11] = biological target: T5, human melanocortin 5 receptor; experiment: radioligand competition, [I125]-NDP-α-MSH, hMC5-R membranes; remark: listed apart in the source
[12] = biological target: T1, human melanocortin 4 receptor; experiment: cell-based or functional assay; remark: listed apart in the source
[13] = biological target: T2, MC1-R of B-16 mouse melanoma cells; experiment: radioligand competition, [I125]-NDP-α-MSH, B-16 membranes; remark: listed apart in the source
[14] = biological target: T4, human melanocortin 3 receptor; experiment: radioligand competition, [I125]-NDP-α-MSH, hMC3-R membranes; remark: listed apart in the source
[15] = biological target: T1, human melanocortin 4 receptor; experiment: radioligand competition, [I125]-NDP-α-MSH, hMC4-R membranes; remark: listed apart in the source
[16] = biological target: T5, human melanocortin 5 receptor; experiment: radioligand competition, [I125]-NDP-α-MSH, hMC5-R membranes; remark: listed apart in the source
[17] = biological target: T1, human melanocortin 4 receptor; experiment: cell-based or functional assay; remark: listed apart in the source
[18] = biological target: T2, MC1-R of B-16 mouse melanoma cells; experiment: radioligand competition, [I125]-NDP-α-MSH, B-16 membranes; remark: listed apart in the source
[19] = biological target: T4, human melanocortin 3 receptor; experiment: radioligand competition, [I125]-NDP-α-MSH, hMC3-R membranes; remark: listed apart in the source
[20] = biological target: T1, human melanocortin 4 receptor; experiment: radioligand competition, [I125]-NDP-α-MSH, hMC4-R membranes; remark: listed apart in the source

T3 sequence (Q01726 whole entry): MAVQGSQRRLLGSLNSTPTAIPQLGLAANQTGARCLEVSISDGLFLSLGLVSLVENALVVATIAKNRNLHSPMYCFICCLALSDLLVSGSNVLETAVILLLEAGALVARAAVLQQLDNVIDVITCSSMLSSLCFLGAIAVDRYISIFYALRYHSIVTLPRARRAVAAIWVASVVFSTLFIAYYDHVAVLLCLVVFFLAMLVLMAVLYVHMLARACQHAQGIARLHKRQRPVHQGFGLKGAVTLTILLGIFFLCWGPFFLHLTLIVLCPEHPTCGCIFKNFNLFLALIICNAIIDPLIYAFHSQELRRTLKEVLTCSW
T4 sequence (P41968 whole entry): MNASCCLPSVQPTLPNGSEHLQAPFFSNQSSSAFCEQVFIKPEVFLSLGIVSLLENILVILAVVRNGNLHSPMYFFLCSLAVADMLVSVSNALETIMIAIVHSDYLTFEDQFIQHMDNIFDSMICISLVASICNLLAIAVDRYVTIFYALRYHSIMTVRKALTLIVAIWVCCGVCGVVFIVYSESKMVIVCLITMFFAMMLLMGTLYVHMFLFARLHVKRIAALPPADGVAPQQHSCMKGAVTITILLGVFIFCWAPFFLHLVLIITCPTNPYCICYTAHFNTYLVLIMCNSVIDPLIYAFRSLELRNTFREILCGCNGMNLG
T5 sequence (P33032 whole entry): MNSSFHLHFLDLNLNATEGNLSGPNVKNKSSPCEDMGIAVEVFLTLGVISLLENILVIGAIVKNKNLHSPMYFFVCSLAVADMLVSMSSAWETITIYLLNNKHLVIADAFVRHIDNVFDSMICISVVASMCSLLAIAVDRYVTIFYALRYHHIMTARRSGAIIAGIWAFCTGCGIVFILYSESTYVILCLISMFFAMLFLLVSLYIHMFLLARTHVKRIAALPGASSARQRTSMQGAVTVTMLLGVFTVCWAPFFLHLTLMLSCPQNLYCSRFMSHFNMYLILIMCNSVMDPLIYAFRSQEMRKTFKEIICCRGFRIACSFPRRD
T1 sequence (P32245 whole entry): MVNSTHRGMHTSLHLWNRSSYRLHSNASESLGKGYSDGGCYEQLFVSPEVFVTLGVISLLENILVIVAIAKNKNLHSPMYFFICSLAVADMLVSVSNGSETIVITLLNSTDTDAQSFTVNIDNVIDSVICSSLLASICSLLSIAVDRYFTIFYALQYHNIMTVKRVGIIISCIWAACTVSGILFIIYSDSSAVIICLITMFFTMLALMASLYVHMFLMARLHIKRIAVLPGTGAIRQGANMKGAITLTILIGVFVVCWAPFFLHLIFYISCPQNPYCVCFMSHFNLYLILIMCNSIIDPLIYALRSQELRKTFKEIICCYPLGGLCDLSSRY
T2 sequence (Q01727 whole entry): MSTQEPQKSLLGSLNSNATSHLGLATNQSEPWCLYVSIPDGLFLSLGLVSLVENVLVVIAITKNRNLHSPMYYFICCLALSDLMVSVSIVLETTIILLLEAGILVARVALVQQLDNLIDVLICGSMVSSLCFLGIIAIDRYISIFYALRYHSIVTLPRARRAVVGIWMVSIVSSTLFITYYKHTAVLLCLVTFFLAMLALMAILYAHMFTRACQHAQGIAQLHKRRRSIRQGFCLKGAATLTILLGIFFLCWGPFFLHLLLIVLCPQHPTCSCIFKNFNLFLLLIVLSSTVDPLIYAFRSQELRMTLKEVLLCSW

Binder: Ac-[Nle]DW[dF]R[1Nal]K-NMe2 (lactam 2-7, also called Compound No. 36) [Ac-Nle-cyclo(-Asp-Trp-D-Phe-Arg-Nal 1-Lys)-N(CH3)2]
- EC50 (nM), normal system (cAMP) [1]: 272 nM
- intrinsic activity, normal system (cAMP) [1]: 0.8
- EC50 (nM) (cAMP), High Receptor Density System [2]: 4 nM
- Ki [3]: 12 nM
- Ki (human MC1-R): 39 nM
- Ki [4]: 231 nM
- Ki [5]: 38 nM
- Ki [6]: 31 nM

B1: Ac-Nle-cyclo(-Asp-His-D-Phe-Arg-Nal 1-Lys)-N(CH3)2 (peptide)
peptide: XDHFRXK
modifications: N-terminal acetyl; Nle at 1 (X); D-Phe at 4; Nal 1 at 6 (X); cyclo(Asp 2 to Lys 7); C-terminal dimethylamide -N(CH3)2
notes: also called Compound No. 37
- EC50 (nM), normal system (cAMP) [1]: 44 nM
- intrinsic activity, normal system (cAMP) [1]: 0.7
- EC50 (nM) (cAMP), High Receptor Density System [7]: 0.6 nM
- EC50 (nM) (cAMP), Low Receptor Density System [7]: 2.1 nM
- Ki [8]: 0.39 nM
- Ki (human MC1-R): 0.08 nM
- Ki [9]: 111 nM
- Ki [10]: 5 nM
- Ki [11]: 50 nM

Continued, values first:

- EC50 (nM), normal system (cAMP) [1]: 0.2 nM
- intrinsic activity, normal system (cAMP) [1]: 0.6
- EC50 (nM) (cAMP), High Receptor Density System [12]: 1.1 nM
- EC50 (nM) (cAMP), Low Receptor Density System [12]: 10 nM
- Ki [13]: 0.07 nM
- Ki (human MC1-R): 0.04 nM
- Ki [14]: 28 nM
- Ki [15]: 2 nM
- Ki [16]: 63 nM
B2: Ac-Nle-cyclo(-Asp-His-D-Phe-Arg-Nal 1-Lys)-NH-CH2-CH3 (peptide)
peptide: XDHFRXK
modifications: N-terminal acetyl; Nle at 1 (X); D-Phe at 4; Nal 1 at 6 (X); cyclo(Asp 2 to Lys 7); C-terminal ethylamide -NH-CH2-CH3
notes: also called Compound No. 39

- EC50 (nM), normal system (cAMP) [1]: 3 nM
- intrinsic activity, normal system (cAMP) [1]: 0.6
- EC50 (nM) (cAMP), Low Receptor Density System [17]: 3.1 nM
- Ki [18]: 5 nM
- Ki (human MC1-R): 0.52 nM
- Ki [19]: 84 nM
- Ki [20]: 6 nM
Binder: Ac-DH[dF]RWK-NHEt (lactam 1-6, also called Compound No. 40) [Ac-cyclo(-Asp-His-D-Phe-Arg-Trp-Lys)-NH-CH2-CH3]

From US20090081197A1 (PALATIN TECHNOLOGIES, published 2009)
